Assay results: US12662540B2, “Compositions and methods for inhibition of MICA/B shedding” (DANA-FARBER CANCER INSTITUTE, INC., priority 2017, dated 2026)

Experiments:
[1] = tested on: B16F10-MICA lung metastases; assay: Flow cytometry-based analysis of immune and tumor cells in lung tissue; format: in vivo, C57BL/6 mice
Procedure: Wild-type mice were injected with 1×10^6 B16F10 cells that were previously transduced with ZsGreen-based lentiviral vectors (full-length MICA, secreted MICA or empty vector). In some experiments, mice received a lower dose of B16F10-MICA tumor cells (7×10^5). On days 1, 2, 7 and 10 following B16F10-MICA cell injection, mice received 200 μg of 7C6-mIgG2a or isotype control (C1184) antibodies by intraperitoneal injection. Prior to euthanasia, mice received an intravenous injection of 50 μl of APC-conjugated anti-CD45.2 (clone104, Biolegend) to label intravascular immune cells. Approximately 5 minutes later, mice were euthanized by CO2 inhalation and cell suspensions were generated from lung tissue. Lungs were cut into small pieces which were re-suspended in 10 ml of RPMI-1640 supplemented with 1 mg/ml collagenase type IV, 0.1 mg/ml hyaluronidase, and 20 U/ml DNase type IV. Samples were dissociated in a gentleMACS instrument (Miltenyi) using the program 37C_m_LDK 1 which digests the tissue by incubation with 37° C. followed by mechanical dissociation. Cells were then washed with PBS, Fc receptors were blocked with Mouse True Stain FcX (Biolegend), and cells were stained with PE-Cy7 or v450-conjugated anti-CD45.2 (104), PE or BV785-NK1.1 (PK136), PerCP-Cy5.5 or Alexa^700-NKp46 (29A1.4), APC or APC-Cy7-CD3c (145.2C11), APC or BV511-TCRβ, PE-Cy5 or Alexa^488-CD69 (H1.2F3), BV421-NKG2D (CX5), BV510-Ly49C (5E6), BV570-CD62L (MEL-14), BV605-CD49a (Ha31/8), Alexa^488-EOMES (Dan11mag), PE-Granzyme A (GzA-3G8.5), PE or PERCP-Cy5.5-CD16/CD32 (93), PE-Cy7-Granzyme B (NGZB), BV510-DNAM-1 (10E5), Alexa^488-KLRG1 (2F1), PE-CXCR6 (SA051D1), PERCP-Cy5.5 or PE-Cy7-CD127 (A7R34), BV510-CXCR3 (CXCR3-173), Zombie NIR, Zombie Yellow or Zombie UV (all from Biolegend, BD Pharmigen or eBiosciences). For transcription factor staining, cells were fixed and permeabilized by a Transcription Factor Buffer kit (BDB562574). For Fc receptor staining, small aliquots of cells from the lung suspensions were separated and stained with PE or PerCP-Cy5.5-CD16/32 antibody (the incubation with Mouse True Stain FcX was skipped in that aliquot of cells). Tumor cells were stained with APC-conjugated anti-H2-Kb (AF6-88.5, Biolegend) and BV650-activated Caspase-3 (C92-605, BD Pharmingen) following permeabilization. Even though the CD45.2 antibody given intravenously and the anti-H2-Kb antibody were conjugated to the same fluorophore (APC), B16F10 cells could be identified based on their larger size, ZsGreen expression as well as the absence of CD45.2 expression. Samples were acquired using a LSR Fortessa, CytoFLEX or a Sony Spectral Analyzer and analyzed by FlowJo V10 software.

CT26-MICA = assay: CT26 metastasis model; format: in vivo, Balb/c mice; details: antibody days 1, 2, 7, 14; count day 21
Procedure: (§1) Balb/c wild type mice were injected intravenously with 1×10^6 CT26-MICA, and treated with 7C6-mIgG2b or MPC-11 (isotype) administered intraperitoneally on days 1, 2, 7, and 14. Euthanasia was performed on day 21, followed by lung perfusion with 30% Indian ink through the trachea and fixation in Fekete's fixative. That procedure stains the lungs in black, while the metastases remain white, enabling counting of metastases under a stereomicroscope (24).
as §1, with “stereomicroscope.” for “stereomicroscope (24).”

NKG2D binding to MICA = NKG2D binding to MICA (Homo sapiens, UniProt Q29983, C59Y/G229S/K148E/K196E/M152V/Q274R/S238T/T236I/T47A/W233R); assay: Bead assay for NKG2D receptor binding to MICA; details: MICA (allele 008) beads, human NKG2D-Fc dimer 10 μg/ml
Procedure: Streptavidin-conjugated C4 beads (BD Pharmingen) were incubated for 2 hours with MICA biotinylated at a C-terminal BirA site (200 ng of MICA per 10,000 beads). Beads were then washed with PBS containing 1% FBS. For the NKG2D receptor binding assay, chimeric human NKG2D-Fc dimer (1299-NK-050, R&D Systems) was conjugated with Alexa^488 (A10468, Molecular Probes) and used at 10 μg/ml. Binding of murine NKG2D to human MICA was measured using NKG2D-Fc dimers (10 μg/ml) followed by an Alexa^488-conjugated anti-human IgG (Molecular Probes) that bound to the Fc region of the NKG2D-Fc dimer. MICA antibodies were also used as competitors for NKG2D dimer binding at concentrations of 10, 30 and 100 μg/ml. In these assays, NKG2D dimer and MICA antibodies were co-incubated with biotinylated MICA*008-conjugated beads.

NKG2D binding to MICA, sequence (Q29983 24-307 T47A/C59Y/K148E/M152V/K196E/G229S/W233R/T236I/S238T/Q274R): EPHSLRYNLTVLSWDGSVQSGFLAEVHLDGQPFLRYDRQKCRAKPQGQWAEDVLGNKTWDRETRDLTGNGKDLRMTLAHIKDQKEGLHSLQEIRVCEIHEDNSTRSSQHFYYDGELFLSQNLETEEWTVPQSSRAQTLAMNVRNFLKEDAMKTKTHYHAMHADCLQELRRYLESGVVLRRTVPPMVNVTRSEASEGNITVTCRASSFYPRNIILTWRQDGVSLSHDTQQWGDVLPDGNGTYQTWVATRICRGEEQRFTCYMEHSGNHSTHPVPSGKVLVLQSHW

B1: 7C6: monoclonal antibody from mice immunized with recombinant MICA α3 domain; parental mIgG2b; VH SEQ ID NO: 7, VL SEQ ID NO: 8 (antibody)
VH: QIQLVQSGPELKKPGETVKVSCKASGYMFTNYAMNWVKQAPEKGLKWMGWINTHTGDPTYADDFKGRIAFSLETSASTAYLQINNLKNEDTATYFCVRTYGNYAMDYWGQGTSVTVSSAKTTAPSVYPLAPVCGDTTGSSVTLGCLVKGYFPEPVTLTWNSGSLSSGVHTFPAVLQSDLYTLSSSVTVTSS
VL: DIQMTQTTSSLSASLGDRVTISCSASQDISNYLNWYQQKPDGTVKLLIYDTSILHLGVPSRFSGSGSGTDYSLTISNLEPEDIATYYCQQYSKFPRTFGGGTTLEIK
modifications: mAb 7C6 heavy chain amino acid sequence; mAb 7C6 light chain amino acid sequence
- H2-Kb (MHC class I) expression by tumor cells ([1]; lung metastases): MHC class I upregulation
- apoptosis of tumor cells (active caspase-3) ([1]; lung metastases): massive tumor cell apoptosis
- B16F10-MICA tumor cells within lung tissue (percentage, absolute numbers) ([1]; mouse, in vivo): substantial reduction of tumor cell load within lung tissue
- NKG2D levels on lung-infiltrating NK cells ([1]; versus isotype control): restored NKG2D levels by lung NK cells
- activity against CT26-MICA lung metastases (CT26-MICA): demonstrated efficacy in a lung metastasis model
- inhibition of NKG2D receptor binding to MICA (NKG2D binding to MICA): do not inhibit NKG2D receptor binding
